From PMC6757032 (Nature Communications, 2019) come the findings set out here.

The target of assay [1] is T1, full-length rat syntaxin-1A (reconstituted in liposomes, S-liposomes) (rat, UniProt P32851 1-288).
T1 construct: syntaxin-1A, rat, full length; For the NMR experiments the protein was 2H-I-13CH3-labelled (isoleucine delta1 methyl groups); also called Syx WT; liposome-anchored syntaxin-1; source: E. coli BL21(DE3), purified (Ni-NTA, thrombin, Superdex 200 in DPC), reconstituted in liposomes
T1 sequence (P32851 whole entry): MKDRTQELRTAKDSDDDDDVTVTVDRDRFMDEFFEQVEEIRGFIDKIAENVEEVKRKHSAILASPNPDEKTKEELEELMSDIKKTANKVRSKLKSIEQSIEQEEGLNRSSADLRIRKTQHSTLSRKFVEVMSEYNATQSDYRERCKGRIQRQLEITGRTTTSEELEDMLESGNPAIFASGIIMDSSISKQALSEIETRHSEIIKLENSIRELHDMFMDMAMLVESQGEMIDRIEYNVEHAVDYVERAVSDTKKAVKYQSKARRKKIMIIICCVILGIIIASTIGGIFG
Nature of the assay: SEC; S-liposomes (2.29 mM lipid) with full-length syntaxin-1A incubated 1 h with 1.2 µM αSNAP or 1.2 µM Munc18-1, then mixed with 1.2 µM of the other (at once or 12 h at 4 °C); 25 mM HEPES pH 7.4, 150 mM KCl, 1 mM TCEP; liposomes and bound proteins elute near the void volume. As to conditions: both partners purified. In general terms: In gel filtration, larger molecules generally elute earlier.

Assay [2] has as its target T1, full-length rat syntaxin-1A …. In words: liposome co-floatation; S-liposomes (0.75 mM lipid) with full-length syntaxin-1A pre-incubated 1 h at room temperature with 3 µM αSNAP (C-terminal His6-linker) or 3 µM Munc18-1, then 0-15 µM of the other protein (with or without 2.4 µM NSF) or 3 µM Munc18-1 at 4 °C for various times; Histodenz gradient, top layer by SDS-PAGE and Coomassie blue. As to conditions: both partners purified.

B1: full-length Bos Taurus αSNAP (natural protein, UniProt P81125 1-295, looked up)
chain: MDNSGKEAEAMALLAEAERKVKNSQSFFSGLFGGSSKIEEACEIYARAANMFKMAKNWSAAGSAFCQAAHVHLQLQSKHDAATCFVDAGNAFKKADPQEAINCLMRAIEIYTDMGRFTIAAKHHISIAEIYETELVDIEKAIAHYEQSADYYKGEESNSSANKCLLKVAGYAAQLEQYQKAIDIYEQVGTNAMDSPLLKYSAKDYFFKAALCHFCIDMLNAKLAVQKYEELFPAFSDSRECKRIKKLLEAHEEQNVDSYTEAVKEYDSISRLDQWLTTMLLRIKKTIQGDEEDLR
notes: alpha-SNAP, Bos taurus, full length; also called WT αSNAP; source: E. coli BL21(DE3), purified (Glutathione Sepharose, thrombin, Superdex 75)
B1: the binding result in assay [1] is “binds”.

B2: αSNAP with a C-terminal His6-linker (…) (natural protein, Bos Taurus, UniProt P81125 1-295, looked up)
chain: B1 chain
notes: Used in all liposome co-floatation assays so that the syntaxin-1 and αSNAP bands separate on the gels; also called αSNAP containing a linker at the C terminus; source: E. coli BL21(DE3), purified as the unmodified construct
In the case of B2, the binding result in assay [2] is reported as “binds”.
